Legend:
[1] = target: HNH domain of NmeCas9 (Neisseria meningitidis) (UniProt C9X1G5); test: ITC
[2] = tested on: NmeCas9 (Neisseria meningitidis); test: fluorescence polarization; conditions: not given in the material (Methods absent)

## AcrIIC1 from Neisseria meningitidis (natural protein)
[1]
  Kd: 6.3 nM

## NmeCas9 sgRNA + target DNA
[2]
  Kd: 71 nM
